Biological target: T1, EsCas13d, nuclease-dead (Eubacterium siraeum, UniProt B0MS50, R295A;H300A;R849A;H854A)
T1 sequence: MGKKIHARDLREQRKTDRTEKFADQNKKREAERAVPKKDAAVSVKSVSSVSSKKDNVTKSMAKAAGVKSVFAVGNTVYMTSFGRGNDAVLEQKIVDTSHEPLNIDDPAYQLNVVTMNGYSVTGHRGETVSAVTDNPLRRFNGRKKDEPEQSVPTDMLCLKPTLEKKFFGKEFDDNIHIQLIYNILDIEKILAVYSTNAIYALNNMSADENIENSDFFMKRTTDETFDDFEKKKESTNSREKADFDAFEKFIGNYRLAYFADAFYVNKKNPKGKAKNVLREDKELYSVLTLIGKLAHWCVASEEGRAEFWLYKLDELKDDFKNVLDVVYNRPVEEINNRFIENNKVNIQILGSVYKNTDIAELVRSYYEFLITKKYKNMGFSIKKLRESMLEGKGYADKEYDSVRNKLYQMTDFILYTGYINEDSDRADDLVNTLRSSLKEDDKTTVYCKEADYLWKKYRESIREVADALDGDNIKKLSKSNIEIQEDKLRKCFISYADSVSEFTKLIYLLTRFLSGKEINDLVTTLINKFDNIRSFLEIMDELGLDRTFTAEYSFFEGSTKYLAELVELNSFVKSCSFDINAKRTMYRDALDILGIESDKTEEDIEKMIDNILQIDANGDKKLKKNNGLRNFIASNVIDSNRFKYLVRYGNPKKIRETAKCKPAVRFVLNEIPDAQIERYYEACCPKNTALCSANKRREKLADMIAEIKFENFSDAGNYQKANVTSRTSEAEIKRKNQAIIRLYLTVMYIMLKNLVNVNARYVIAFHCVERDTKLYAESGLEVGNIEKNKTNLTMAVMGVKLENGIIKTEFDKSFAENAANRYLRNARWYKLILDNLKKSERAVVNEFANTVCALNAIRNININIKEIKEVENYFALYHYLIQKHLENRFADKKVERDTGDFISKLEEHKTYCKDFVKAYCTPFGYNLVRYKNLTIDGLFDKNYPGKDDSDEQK
Experiment: crRNA (strand 1, pre-loaded); Mg2+; 40 mM Tris-HCl pH 7.5, 150 mM NaCl, 6 mM MgCl2, 1 mM DTT, 0.1% Tween-20, 0.2 mg/ml BSA; 25 C; 10 min per concentration, then washed
Settings: tags: His6-TwinStrep-SUMO cleaved; N-terminal SNAP kept (SNAP-Surface 488); label: 3' end held by stalled T7 RNA polymerase

B1: target 1 MT 5'PFS GCC 3'PFS CUU (mixed)
RNA 1: CACCCGUGCAAAAAUGCAGGGGUCUAAAACUGAGCGGAUAACCUCUCUAUGG
RNA 2: GGGAAUGGAUCCACAUCUACGAAUUCGCCCCAUAGAGAGGUUAUCCGCUCACUUAGAUCGGAAGAGCACACGU
Kd: 15.6 ± 5.05 nM

B2: target 1 MT 5'PFS UAU 3'PFS CUU (mixed)
RNA 1: CACCCGUGCAAAAAUGCAGGGGUCUAAAACUGAGCGGAUAACCUCUCUAUGG
RNA 2: GGGAAUGGAUCCACAUCUACGAAUUCUAUCCAUAGAGAGGUUAUCCGCUCACUUAGAUCGGAAGAGCACACGU
Kd: 39.5 ± 12.5 nM

B3: target 1 MT 5'PFS GUG 3'PFS CGU (mixed)
RNA 1: CACCCGUGCAAAAAUGCAGGGGUCUAAAACUGAGCGGAUAACCUCUCUAUGG
RNA 2: GGGAAUGGAUCCACAUCUACGAAUUCGUGCCAUAGAGAGGUUAUCCGCUCACGUAGAUCGGAAGAGCACACGU
Kd: 6.83 ± 0.425 nM

B4: target 1 MT 5'PFS GUG 3'PFS CGC (mixed)
RNA 1: CACCCGUGCAAAAAUGCAGGGGUCUAAAACUGAGCGGAUAACCUCUCUAUGG
RNA 2: GGGAAUGGAUCCACAUCUACGAAUUCGUGCCAUAGAGAGGUUAUCCGCUCACGCAGAUCGGAAGAGCACACGU
Kd: 22.6 ± 1.7 nM

B5: target 1 MT 5'PFS GCC 3'PFS CUA (mixed)
RNA 1: CACCCGUGCAAAAAUGCAGGGGUCUAAAACUGAGCGGAUAACCUCUCUAUGG
RNA 2: GGGAAUGGAUCCACAUCUACGAAUUCGCCCCAUAGAGAGGUUAUCCGCUCACUAAGAUCGGAAGAGCACACGU
Kd: 13.2 ± 3.15 nM

B6: target 1 MT 5'PFS GUG 3'PFS CGG (mixed)
RNA 1: CACCCGUGCAAAAAUGCAGGGGUCUAAAACUGAGCGGAUAACCUCUCUAUGG
RNA 2: GGGAAUGGAUCCACAUCUACGAAUUCGUGCCAUAGAGAGGUUAUCCGCUCACGGAGAUCGGAAGAGCACACGU
Kd: 23.4 ± 1.85 nM

B7: target 1 MT 5'PFS GGG 3'PFS UCU (mixed)
RNA 1: CACCCGUGCAAAAAUGCAGGGGUCUAAAACUGAGCGGAUAACCUCUCUAUGG
RNA 2: GGGAAUGGAUCCACAUCUACGAAUUCGGGCCAUAGAGAGGUUAUCCGCUCAUCUAGAUCGGAAGAGCACACGU
Kd: 14.6 ± 2.1 nM

B8: target 1 MT 5'PFS GUG 3'PFS CGA (mixed)
RNA 1: CACCCGUGCAAAAAUGCAGGGGUCUAAAACUGAGCGGAUAACCUCUCUAUGG
RNA 2: GGGAAUGGAUCCACAUCUACGAAUUCGUGCCAUAGAGAGGUUAUCCGCUCACGAAGAUCGGAAGAGCACACGU
Kd: 22.9 ± 2.2 nM

B9: target 1 MT 5'PFS GUG 3'PFS AGC (mixed)
RNA 1: CACCCGUGCAAAAAUGCAGGGGUCUAAAACUGAGCGGAUAACCUCUCUAUGG
RNA 2: GGGAAUGGAUCCACAUCUACGAAUUCGUGCCAUAGAGAGGUUAUCCGCUCAAGCAGAUCGGAAGAGCACACGU
Kd: 9.45 ± 0.75 nM

B10: target 1 MT 5'PFS GGG 3'PFS UCC (mixed)
RNA 1: CACCCGUGCAAAAAUGCAGGGGUCUAAAACUGAGCGGAUAACCUCUCUAUGG
RNA 2: GGGAAUGGAUCCACAUCUACGAAUUCGGGCCAUAGAGAGGUUAUCCGCUCAUCCAGAUCGGAAGAGCACACGU
Kd: 28 ± 5 nM

B11: target 1 MT 5'PFS GCA 3'PFS AGU (mixed)
RNA 1: CACCCGUGCAAAAAUGCAGGGGUCUAAAACUGAGCGGAUAACCUCUCUAUGG
RNA 2: GGGAAUGGAUCCACAUCUACGAAUUCGCACCAUAGAGAGGUUAUCCGCUCAAGUAGAUCGGAAGAGCACACGU
Kd: 23 ± 5 nM

B12: target 1 MT 5'PFS GGG 3'PFS UCG (mixed)
RNA 1: CACCCGUGCAAAAAUGCAGGGGUCUAAAACUGAGCGGAUAACCUCUCUAUGG
RNA 2: GGGAAUGGAUCCACAUCUACGAAUUCGGGCCAUAGAGAGGUUAUCCGCUCAUCGAGAUCGGAAGAGCACACGU
Kd: 20.7 ± 3.55 nM

B13: target 1 MT 5'PFS GCC 3'PFS CUC (mixed)
RNA 1: CACCCGUGCAAAAAUGCAGGGGUCUAAAACUGAGCGGAUAACCUCUCUAUGG
RNA 2: GGGAAUGGAUCCACAUCUACGAAUUCGCCCCAUAGAGAGGUUAUCCGCUCACUCAGAUCGGAAGAGCACACGU
Kd: 33 ± 15 nM

B14: target 1 MT 5'PFS GCC 3'PFS CUG (mixed)
RNA 1: CACCCGUGCAAAAAUGCAGGGGUCUAAAACUGAGCGGAUAACCUCUCUAUGG
RNA 2: GGGAAUGGAUCCACAUCUACGAAUUCGCCCCAUAGAGAGGUUAUCCGCUCACUGAGAUCGGAAGAGCACACGU
Kd: 17 ± 6 nM

B15: target 1 MT 5'PFS AGU 3'PFS UCC (mixed)
RNA 1: CACCCGUGCAAAAAUGCAGGGGUCUAAAACUGAGCGGAUAACCUCUCUAUGG
RNA 2: GGGAAUGGAUCCACAUCUACGAAUUCAGUCCAUAGAGAGGUUAUCCGCUCAUCCAGAUCGGAAGAGCACACGU
Kd: 29 ± 11.5 nM

B16: target 1 MT 5'PFS GAA 3'PFS AUA (mixed)
RNA 1: CACCCGUGCAAAAAUGCAGGGGUCUAAAACUGAGCGGAUAACCUCUCUAUGG
RNA 2: GGGAAUGGAUCCACAUCUACGAAUUCGAACCAUAGAGAGGUUAUCCGCUCAAUAAGAUCGGAAGAGCACACGU
Kd: 32 ± 7.5 nM

B17: target 1 MT 5'PFS GCA 3'PFS AGA (mixed)
RNA 1: CACCCGUGCAAAAAUGCAGGGGUCUAAAACUGAGCGGAUAACCUCUCUAUGG
RNA 2: GGGAAUGGAUCCACAUCUACGAAUUCGCACCAUAGAGAGGUUAUCCGCUCAAGAAGAUCGGAAGAGCACACGU
Kd: 22.5 ± 4.15 nM

B18: target 1 MT 5'PFS GCA 3'PFS AGG (mixed)
RNA 1: CACCCGUGCAAAAAUGCAGGGGUCUAAAACUGAGCGGAUAACCUCUCUAUGG
RNA 2: GGGAAUGGAUCCACAUCUACGAAUUCGCACCAUAGAGAGGUUAUCCGCUCAAGGAGAUCGGAAGAGCACACGU
Kd: 43.5 ± 10 nM

B19: target 1 G13A,C22U (mixed)
RNA 1: CACCCGUGCAAAAAUGCAGGGGUCUAAAACUGAGCGGAUAACCUCUCUAUGG
RNA 2: GGGAAUGGAUCCACAUCUACGAAUUCGUAUCAUAGAGAAGUUAUCCGCUCACCGAGAUCGGAAGAGCACACGU
Kd: 10.7 ± 1.7 nM

B20: target 1 MT 5'PFS GGG 3'PFS UCA (mixed)
RNA 1: CACCCGUGCAAAAAUGCAGGGGUCUAAAACUGAGCGGAUAACCUCUCUAUGG
RNA 2: GGGAAUGGAUCCACAUCUACGAAUUCGGGCCAUAGAGAGGUUAUCCGCUCAUCAAGAUCGGAAGAGCACACGU
Kd: 18.6 ± 3.75 nM

B21: target 1 MT 5'PFS GUG 3'PFS AGU (mixed)
RNA 1: CACCCGUGCAAAAAUGCAGGGGUCUAAAACUGAGCGGAUAACCUCUCUAUGG
RNA 2: GGGAAUGGAUCCACAUCUACGAAUUCGUGCCAUAGAGAGGUUAUCCGCUCAAGUAGAUCGGAAGAGCACACGU
Kd: 11.4 ± 0.8 nM

B22: target 1 insC 3' of 12,insC 3' of 9 (mixed)
RNA 1: CACCCGUGCAAAAAUGCAGGGGUCUAAAACUGAGCGGAUAACCUCUCUAUGG
RNA 2: GGGAAUGGAUCCACAUCUACGAAUUCGUACCAUAGAGAGGCUUACUCCGCUCACCGAGAUCGGAAGAGCACACGU
Kd: 21.9 ± 1 nM

B23: target 1 insC 3' of 17,insC 3' of 10 (mixed)
RNA 1: CACCCGUGCAAAAAUGCAGGGGUCUAAAACUGAGCGGAUAACCUCUCUAUGG
RNA 2: GGGAAUGGAUCCACAUCUACGAAUUCGUACCAUAGCAGAGGUUCAUCCGCUCACCGAGAUCGGAAGAGCACACGU
Kd: 52 ± 18 nM

B24: target 1 MT 5'PFS UGG 3'PFS AGU (mixed)
RNA 1: CACCCGUGCAAAAAUGCAGGGGUCUAAAACUGAGCGGAUAACCUCUCUAUGG
RNA 2: GGGAAUGGAUCCACAUCUACGAAUUCUGGCCAUAGAGAGGUUAUCCGCUCAAGUAGAUCGGAAGAGCACACGU
Kd: 67 ± 33 nM

B25: target 1 MT 5'PFS UAC 3'PFS CGG (mixed)
RNA 1: CACCCGUGCAAAAAUGCAGGGGUCUAAAACUGAGCGGAUAACCUCUCUAUGG
RNA 2: GGGAAUGGAUCCACAUCUACGAAUUCUACCCAUAGAGAGGUUAUCCGCUCACGGAGAUCGGAAGAGCACACGU
Kd: 44.5 ± 21 nM

B26: target 1 MT 5'PFS AAC 3'PFS UAC (mixed)
RNA 1: CACCCGUGCAAAAAUGCAGGGGUCUAAAACUGAGCGGAUAACCUCUCUAUGG
RNA 2: GGGAAUGGAUCCACAUCUACGAAUUCAACCCAUAGAGAGGUUAUCCGCUCAUACAGAUCGGAAGAGCACACGU
Kd: 31 ± 13 nM

B27: target 1 MT 5'PFS GGC 3'PFS CCC (mixed)
RNA 1: CACCCGUGCAAAAAUGCAGGGGUCUAAAACUGAGCGGAUAACCUCUCUAUGG
RNA 2: GGGAAUGGAUCCACAUCUACGAAUUCGGCCCAUAGAGAGGUUAUCCGCUCACCCAGAUCGGAAGAGCACACGU
Kd: ~25 nM

B28: target 1 MT 5'PFS GUG 3'PFS AGG (mixed)
RNA 1: CACCCGUGCAAAAAUGCAGGGGUCUAAAACUGAGCGGAUAACCUCUCUAUGG
RNA 2: GGGAAUGGAUCCACAUCUACGAAUUCGUGCCAUAGAGAGGUUAUCCGCUCAAGGAGAUCGGAAGAGCACACGU
Kd: 28.7 ± 1.75 nM
